Experimental data from the Human Domainome abundance scans (Beltran et al. 2025).
± gives the uncertainty stated by the source.

B1: Cytoplasmic polyadenylation element-binding protein 2, residues 513 to 575; numbered along this chain, Q7Z5Q1 (parent)
chain: KRVEVKPYVLDDQMCDECQGARCGGKFAPFFCANVTCLQYYCEFCWANIHSRAGREFHKPLVK

Variants of: B1
Assay: abundance fitness (aPCA) (normalised: wild type 0, dead -1); higher = more abundant; growth selection in yeast, the domain comes from the species named
Settings: Homo sapiens
In the case of R52Y, the abundance fitness is reported as -0.088 ± 0.097.
For R52E, the abundance fitness was 0.079 ± 0.045.
In the case of R52Q, the abundance fitness is reported as 0.119 ± 0.058.
R52K gave an abundance fitness of 0.118 ± 0.068.
Work on R52A yielded an abundance fitness of 0 ± 0.045.
In the case of R52N, the abundance fitness is reported as 0.004 ± 0.08.
Work on R52G yielded an abundance fitness of 0.02 ± 0.034.
Variant H58Q has an abundance fitness of -0.663 ± 0.1.
Work on H58I yielded an abundance fitness of -0.679 ± 0.15.
Variant H58E has an abundance fitness of -0.442 ± 0.069.
For H58L, the abundance fitness was -0.707 ± 0.061.
C42G showed an abundance fitness of -0.58 ± 0.08.
With C42D the abundance fitness was -0.558 ± 0.094.
Work on C42M yielded an abundance fitness of -1.22 ± 0.24.
Variant C42W has an abundance fitness of -1.29 ± 0.44.
Variant C42F has an abundance fitness of -0.819 ± 0.11.
Y40N gave an abundance fitness of 0.041 ± 0.084.
In the case of Y40P, the abundance fitness is reported as -0.654 ± 0.079.
Y40I gave an abundance fitness of -0.512 ± 0.096.
In the case of Y40E, the abundance fitness is reported as -0.702 ± 0.063.
Work on Y40M yielded an abundance fitness of -0.231 ± 0.055.
With Y40S the abundance fitness was -0.178 ± 0.051.
Work on Y40T yielded an abundance fitness of -0.315 ± 0.068.
Y40H gave an abundance fitness of -0.092 ± 0.066.
Variant K6D has an abundance fitness of 0.029 ± 0.065.
K6Q showed an abundance fitness of -0.083 ± 0.044.
G54S gave an abundance fitness of -0.009 ± 0.043.
For G54E, the abundance fitness was -0.065 ± 0.064.
G54W showed an abundance fitness of -0.259 ± 0.061.
In the case of G54P, the abundance fitness is reported as -0.004 ± 0.057.
With N34V the abundance fitness was -0.29 ± 0.051.
In the case of N34S, the abundance fitness is reported as -0.095 ± 0.04.
For N34D, the abundance fitness was -0.07 ± 0.089.
N34M showed an abundance fitness of -0.44 ± 0.05.
A28N showed an abundance fitness of -0.459 ± 0.13.
A28T gave an abundance fitness of -0.364 ± 0.061.
With A28D the abundance fitness was -0.484 ± 0.077.
In the case of A28Y, the abundance fitness is reported as -0.985 ± 0.2.
For A28P, the abundance fitness was -0.208 ± 0.068.
Variant A28G has an abundance fitness of -0.314 ± 0.034.
For A28F, the abundance fitness was -0.498 ± 0.11.
A33Q showed an abundance fitness of 0.099 ± 0.053.
With A33W the abundance fitness was -0.28 ± 0.042.
With A33E the abundance fitness was 0.077 ± 0.046.
In the case of A33P, the abundance fitness is reported as -0.072 ± 0.05.
For A33M, the abundance fitness was -0.18 ± 0.047.
D11A gave an abundance fitness of -0.122 ± 0.045.
D11T gave an abundance fitness of -0.239 ± 0.063.
D11S showed an abundance fitness of -0.125 ± 0.05.
With D11L the abundance fitness was -0.27 ± 0.041.
In the case of D11E, the abundance fitness is reported as 0.084 ± 0.05.
E4S gave an abundance fitness of -0.185 ± 0.048.
Variant E4H has an abundance fitness of -0.363 ± 0.1.
E4Y gave an abundance fitness of -0.275 ± 0.1.
E4D showed an abundance fitness of -0.132 ± 0.063.
With G20V the abundance fitness was -0.418 ± 0.055.
G20C gave an abundance fitness of -0.503 ± 0.07.
With G20P the abundance fitness was -0.688 ± 0.078.
In the case of G20Q, the abundance fitness is reported as -0.582 ± 0.1.
In the case of G20N, the abundance fitness is reported as -0.499 ± 0.092.
Variant G20K has an abundance fitness of -0.403 ± 0.089.
In the case of G20D, the abundance fitness is reported as -0.093 ± 0.08.
With R22D the abundance fitness was -0.289 ± 0.075.
In the case of R22T, the abundance fitness is reported as -0.283 ± 0.055.
With C15F the abundance fitness was -0.588 ± 0.073.
For C15L, the abundance fitness was -0.531 ± 0.053.
Variant C15A has an abundance fitness of -0.394 ± 0.062.
In the case of C15N, the abundance fitness is reported as -0.592 ± 0.13.
Work on C15P yielded an abundance fitness of -0.454 ± 0.084.
Variant C15G has an abundance fitness of -0.531 ± 0.054.
For C15Y, the abundance fitness was -0.519 ± 0.12.
Variant C15W has an abundance fitness of -0.759 ± 0.11.
With Q19P the abundance fitness was -0.579 ± 0.062.
In the case of Q19N, the abundance fitness is reported as -0.446 ± 0.25.
In the case of Q19F, the abundance fitness is reported as -0.151 ± 0.069.
For Q19G, the abundance fitness was -0.036 ± 0.049.
In the case of Q19T, the abundance fitness is reported as -0.056 ± 0.048.
Work on Q19A yielded an abundance fitness of -0.008 ± 0.045.
Q19C showed an abundance fitness of -0.22 ± 0.12.
Work on Q19Y yielded an abundance fitness of -0.224 ± 0.094.
In the case of Q19W, the abundance fitness is reported as -0.295 ± 0.07.
K1C gave an abundance fitness of -0.276 ± 0.076.
Work on K1Q yielded an abundance fitness of -0.248 ± 0.09.
For K1E, the abundance fitness was 0.038 ± 0.063.
K1R gave an abundance fitness of -0.216 ± 0.052.
With F27M the abundance fitness was -0.013 ± 0.056.
With F27P the abundance fitness was -0.01 ± 0.055.
In the case of F27D, the abundance fitness is reported as -0.125 ± 0.082.
In the case of F27A, the abundance fitness is reported as 0.068 ± 0.042.
With F27Q the abundance fitness was -0.045 ± 0.05.
For F27C, the abundance fitness was 0.054 ± 0.057.
In the case of F27R, the abundance fitness is reported as -0.014 ± 0.047.
Work on F27Y yielded an abundance fitness of -0.202 ± 0.095.
Work on F27K yielded an abundance fitness of 0.084 ± 0.059.
Q39K showed an abundance fitness of 0.201 ± 0.061.
With Q39D the abundance fitness was -0.631 ± 0.087.
In the case of Q39L, the abundance fitness is reported as -0.175 ± 0.047.
Q39V showed an abundance fitness of -0.001 ± 0.044.
K63G gave an abundance fitness of 0.1 ± 0.1.
For K63W, the abundance fitness was -0.415 ± 0.09.
K63R showed an abundance fitness of -0.105 ± 0.092.
Variant K63E has an abundance fitness of 0.014 ± 0.082.
With K63A the abundance fitness was 0.125 ± 0.16.
Variant K63T has an abundance fitness of -0.079 ± 0.085.
For E43Q, the abundance fitness was -0.11 ± 0.057.
Work on E43Y yielded an abundance fitness of -0.146 ± 0.058.
E43K gave an abundance fitness of -0.161 ± 0.064.
For E43R, the abundance fitness was -0.107 ± 0.036.
E43T showed an abundance fitness of -0.149 ± 0.06.
With G25R the abundance fitness was -0.081 ± 0.041.
Variant G25Q has an abundance fitness of -0.066 ± 0.082.
Variant F57Y has an abundance fitness of -0.032 ± 0.077.
Variant F57L has an abundance fitness of 0.091 ± 0.046.
F57E showed an abundance fitness of 0.117 ± 0.047.
In the case of F57C, the abundance fitness is reported as 0.098 ± 0.064.
In the case of F57A, the abundance fitness is reported as 0.125 ± 0.049.
Variant F57P has an abundance fitness of -0.029 ± 0.052.
Variant F57R has an abundance fitness of 0.097 ± 0.038.
For F57D, the abundance fitness was 0.054 ± 0.073.
R2K showed an abundance fitness of 0.101 ± 0.058.
Variant R2V has an abundance fitness of -0.187 ± 0.057.
Variant R2M has an abundance fitness of -0.012 ± 0.051.
With R2D the abundance fitness was 0.001 ± 0.14.
Variant R2L has an abundance fitness of -0.363 ± 0.053.
R2A showed an abundance fitness of -0.096 ± 0.06.
In the case of R2I, the abundance fitness is reported as 0.048 ± 0.065.
In the case of V3M, the abundance fitness is reported as -0.091 ± 0.077.
V3Q gave an abundance fitness of 0.11 ± 0.056.
In the case of V3K, the abundance fitness is reported as 0.112 ± 0.063.
In the case of V3C, the abundance fitness is reported as -0.945 ± 0.13.
D16N showed an abundance fitness of 0.253 ± 0.088.
Work on D16T yielded an abundance fitness of 0.115 ± 0.043.
Work on D16V yielded an abundance fitness of -0.036 ± 0.038.
D16A showed an abundance fitness of 0.098 ± 0.056.
In the case of D16Y, the abundance fitness is reported as 0.192 ± 0.087.
D16R gave an abundance fitness of 0.015 ± 0.037.
G24H gave an abundance fitness of -0.252 ± 0.12.
In the case of G24T, the abundance fitness is reported as -0.325 ± 0.055.
With G24M the abundance fitness was -0.275 ± 0.06.
Y8N showed an abundance fitness of 0.13 ± 0.075.
Variant Y8W has an abundance fitness of -0.091 ± 0.059.
In the case of Y8M, the abundance fitness is reported as -0.365 ± 0.087.
For Y8A, the abundance fitness was 0.01 ± 0.04.
Work on C32N yielded an abundance fitness of -0.724 ± 0.12.
With C32R the abundance fitness was -0.739 ± 0.079.
In the case of C32E, the abundance fitness is reported as -0.683 ± 0.056.
With C32K the abundance fitness was -0.617 ± 0.072.
C32Y gave an abundance fitness of -0.837 ± 0.11.
Variant C32F has an abundance fitness of -1.1 ± 0.18.
For C32T, the abundance fitness was -0.779 ± 0.06.
C32L gave an abundance fitness of -0.882 ± 0.059.
In the case of W46Q, the abundance fitness is reported as -0.624 ± 0.14.
For W46G, the abundance fitness was -0.567 ± 0.082.
W46V gave an abundance fitness of -0.573 ± 0.062.
Work on W46D yielded an abundance fitness of -0.684 ± 0.091.
Work on D12F yielded an abundance fitness of -0.312 ± 0.06.
Work on D12P yielded an abundance fitness of -0.107 ± 0.055.
With D12A the abundance fitness was -0.117 ± 0.061.
For D12N, the abundance fitness was -0.019 ± 0.049.
In the case of D12C, the abundance fitness is reported as -0.305 ± 0.18.
With D12V the abundance fitness was -0.221 ± 0.058.
D12T gave an abundance fitness of -0.168 ± 0.051.
For D12W, the abundance fitness was -0.225 ± 0.05.
For A47F, the abundance fitness was -0.235 ± 0.062.
For A47I, the abundance fitness was -0.073 ± 0.064.
Variant A47W has an abundance fitness of -0.133 ± 0.065.
V35K showed an abundance fitness of 0.002 ± 0.07.
